The target in this assay is muscle RAS oncogene homolog (MRAS) fused to mCherry, expressed from pmCherry-MRAS (UniProt O14807). The assay can be described thus: FRET or BRET; FRET between GFP (donor, excited at 488 nm) and mCherry (acceptor, emission 610 nm) fusion proteins, imaged in MCF-7 cells.

This passage reports FRET efficiency results from publication PMC8943035.

With “G-protein gamma subunit 2 (GNG2) fused to EGFP, expressed from pEGFP-GNG2 (from UniProt P59768 1-71) (natural protein)”, the FRET efficiency worked out at 11%.
